Holding throughout (assay): fluorescence anisotropy
(In fluorescence polarisation assays a small probe gives low polarisation when free and higher when bound to something large.)

Data set [1] deals with T1, rGyr_fl Y851F (full-length reverse gyrase) (Thermotoga maritima, UniProt O51934 1-1104, Y851F).
T1 sequence: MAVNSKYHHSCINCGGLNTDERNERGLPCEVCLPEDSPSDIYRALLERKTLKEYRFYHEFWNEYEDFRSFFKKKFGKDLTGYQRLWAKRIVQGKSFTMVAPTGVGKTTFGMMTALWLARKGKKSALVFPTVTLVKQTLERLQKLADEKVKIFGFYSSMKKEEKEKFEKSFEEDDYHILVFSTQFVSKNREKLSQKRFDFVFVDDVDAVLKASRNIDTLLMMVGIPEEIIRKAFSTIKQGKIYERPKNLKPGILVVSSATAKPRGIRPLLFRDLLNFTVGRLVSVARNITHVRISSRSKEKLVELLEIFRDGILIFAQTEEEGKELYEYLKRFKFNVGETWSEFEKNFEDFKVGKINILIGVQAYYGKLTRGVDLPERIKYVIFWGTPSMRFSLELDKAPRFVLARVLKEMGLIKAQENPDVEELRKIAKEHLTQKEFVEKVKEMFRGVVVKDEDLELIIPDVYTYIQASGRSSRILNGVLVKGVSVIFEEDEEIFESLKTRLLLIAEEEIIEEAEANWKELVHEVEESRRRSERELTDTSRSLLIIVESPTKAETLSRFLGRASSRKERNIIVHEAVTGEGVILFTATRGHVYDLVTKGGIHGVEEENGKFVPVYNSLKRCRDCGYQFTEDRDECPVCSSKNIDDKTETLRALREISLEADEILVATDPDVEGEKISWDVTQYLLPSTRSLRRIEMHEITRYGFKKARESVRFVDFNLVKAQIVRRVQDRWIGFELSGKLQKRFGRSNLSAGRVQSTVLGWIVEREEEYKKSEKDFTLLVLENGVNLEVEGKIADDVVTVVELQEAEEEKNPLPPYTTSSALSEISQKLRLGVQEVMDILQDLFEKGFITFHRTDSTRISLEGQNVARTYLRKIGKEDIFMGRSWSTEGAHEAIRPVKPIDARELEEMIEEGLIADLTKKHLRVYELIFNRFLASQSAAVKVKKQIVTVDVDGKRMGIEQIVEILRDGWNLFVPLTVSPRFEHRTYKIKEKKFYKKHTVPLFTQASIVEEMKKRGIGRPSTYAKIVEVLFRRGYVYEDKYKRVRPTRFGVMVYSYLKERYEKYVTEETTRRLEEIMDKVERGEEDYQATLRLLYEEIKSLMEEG

The target in data set [2] is T2, rGyr_hel (reverse gyrase helicase-like domain) (Thermotoga maritima, UniProt O51934 59-541).
T2 sequence: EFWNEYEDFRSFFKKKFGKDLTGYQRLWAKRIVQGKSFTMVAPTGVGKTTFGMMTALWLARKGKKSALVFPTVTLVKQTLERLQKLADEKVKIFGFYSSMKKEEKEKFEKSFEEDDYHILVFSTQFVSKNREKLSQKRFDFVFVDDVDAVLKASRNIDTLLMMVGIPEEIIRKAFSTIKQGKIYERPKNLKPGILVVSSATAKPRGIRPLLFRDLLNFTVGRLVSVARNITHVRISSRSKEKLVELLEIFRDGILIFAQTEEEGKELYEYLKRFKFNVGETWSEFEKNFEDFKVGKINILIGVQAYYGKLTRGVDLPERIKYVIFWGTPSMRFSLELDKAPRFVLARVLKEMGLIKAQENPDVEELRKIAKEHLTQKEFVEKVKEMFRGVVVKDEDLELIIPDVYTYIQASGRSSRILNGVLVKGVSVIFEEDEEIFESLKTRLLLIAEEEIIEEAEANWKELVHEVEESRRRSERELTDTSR

The target in the next data set is T3, rGyr_fl K106Q/Y851F (Thermotoga maritima, UniProt O51934 1-1104, K106Q;Y851F).
T3 sequence: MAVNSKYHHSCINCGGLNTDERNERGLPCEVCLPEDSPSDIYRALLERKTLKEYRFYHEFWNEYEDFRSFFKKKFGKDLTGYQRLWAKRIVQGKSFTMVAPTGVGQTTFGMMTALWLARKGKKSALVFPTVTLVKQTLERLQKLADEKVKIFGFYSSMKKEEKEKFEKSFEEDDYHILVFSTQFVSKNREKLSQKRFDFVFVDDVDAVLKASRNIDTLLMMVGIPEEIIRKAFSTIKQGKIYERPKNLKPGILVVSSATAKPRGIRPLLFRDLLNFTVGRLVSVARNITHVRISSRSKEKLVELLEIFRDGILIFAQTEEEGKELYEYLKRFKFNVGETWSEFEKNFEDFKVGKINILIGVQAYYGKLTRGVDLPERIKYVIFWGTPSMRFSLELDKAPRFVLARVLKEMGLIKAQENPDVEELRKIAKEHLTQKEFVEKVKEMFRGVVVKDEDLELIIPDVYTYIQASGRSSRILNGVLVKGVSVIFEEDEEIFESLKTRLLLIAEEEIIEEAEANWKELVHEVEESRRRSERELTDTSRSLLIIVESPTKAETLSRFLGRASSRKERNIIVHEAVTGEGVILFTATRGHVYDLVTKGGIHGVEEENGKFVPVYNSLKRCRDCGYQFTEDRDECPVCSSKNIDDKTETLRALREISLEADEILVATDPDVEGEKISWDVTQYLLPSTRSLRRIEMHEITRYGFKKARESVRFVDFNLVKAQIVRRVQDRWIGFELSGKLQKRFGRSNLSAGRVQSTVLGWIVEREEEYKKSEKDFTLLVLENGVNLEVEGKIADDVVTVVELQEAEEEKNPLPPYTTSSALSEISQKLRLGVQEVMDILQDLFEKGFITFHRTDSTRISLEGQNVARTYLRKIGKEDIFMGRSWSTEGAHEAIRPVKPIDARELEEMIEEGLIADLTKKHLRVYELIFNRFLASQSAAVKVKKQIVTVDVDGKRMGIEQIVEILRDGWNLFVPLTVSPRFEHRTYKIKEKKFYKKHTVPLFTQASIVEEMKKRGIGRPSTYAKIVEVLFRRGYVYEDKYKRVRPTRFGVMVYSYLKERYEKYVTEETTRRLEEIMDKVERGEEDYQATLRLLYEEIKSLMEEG

B1: 60-base ssDNA (ssDNA)
DNA: AAGCCAAGCTTCTAGAGTCAGCCCGTGATATTCATTACTTCTTATCCTAGGATCCCCGTT
B1: the dissociation constant (Kd) in data set [1] worked out at 49 ± 12 nM; in data set [2], 380 ± 50 nM.

B2: 60 bp dsDNA (dsDNA)
DNA 1: AAGCCAAGCTTCTAGAGTCAGCCCGTGATATTCATTACTTCTTATCCTAGGATCCCCGTT
DNA 2: AACGGGGATCCTAGGATAAGAAGTAATGAATATCACGGGCTGACTCTAGAAGCTTGGCTT
Take B2: in the data set with rGyr_fl K106Q/Y851F, the Kd worked out at 490 ± 90 nM.

The Kd is the concentration at which binding is half-saturated. The low end stands for a tighter complex, the high end for a looser complex.

The values are drawn from paper PMC2566858 (Nucleic Acids Research, 2008).
